Experimental data taken from patent US20180362652A1 (Biogen, published 2018).

Experiments:
[1] = biological target: T1, cynomolgus monkey BDCA2 (full-length, cell surface, E73 SNP form) (cynomolgus monkey, UniProt Q8WTT0 1-213 (human entry)); test: indirect method: flow cytometry of pDCs in cynomolgus whole blood, unlabelled BIIB059 titrated, free BDCA2 detected with the competitor BIIB059-A647 at 10 ug/mL [panel Cynomolgus monkey 7]
T1 construct: also called cyno BDCA2; surface cynomolgus monkey BDCA2
T1 chain: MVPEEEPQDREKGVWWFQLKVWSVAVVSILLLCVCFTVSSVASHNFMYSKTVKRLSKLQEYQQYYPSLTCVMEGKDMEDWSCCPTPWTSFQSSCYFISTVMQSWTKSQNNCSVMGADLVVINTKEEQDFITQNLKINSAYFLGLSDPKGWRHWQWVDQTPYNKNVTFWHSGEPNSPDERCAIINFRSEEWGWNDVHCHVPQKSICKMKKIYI
Method: (§1) The MFI of PE (open symbols, graphed on the left y-axis) or A647 (closed symbols, graphed on the right y-axis) was calculated in FlowJo software, and graphed using GraphPad Prism software (four-parameter nonlinear regression curve fit of log-transformed data).

[2] = biological target: T1, cynomolgus monkey BDCA2 (full-length, …); test: flow cytometry, whole blood pDCs of cynomolgus monkey donor 3, anti-human IgG PE secondary
Method: (§2) The MFI of PE was calculated in FlowJo software, and the percent of maximal binding, using the 40 μg/mL point as 100%, was computed. Each line represents one individual cynomolgus monkey, for a total of twelve cynomolgus monkeys, and graphed using GraphPad Prism software (four-parameter nonlinear regression curve fit of log-transformed data). Staining was repeated once a week for three weeks total.
(§3) The maximal values were taken from the values at the plateau in each assay (FIGS. 24 and 25).
(§4) MFI of PE was calculated with FlowJo software, and EC50 curves were generated in GraphPad Prism software.

[3] = biological target: T1, cynomolgus monkey BDCA2 (full-length, …); test: indirect method: flow cytometry of pDCs in cynomolgus whole blood, unlabelled BIIB059 titrated, free BDCA2 detected with the competitor BIIB059-A647 at 10 ug/mL [panel Cynomolgus monkey 6]
Method: as §1

[4] = biological target: T1, cynomolgus monkey BDCA2 (full-length, …); test: flow cytometry, whole blood pDCs of cynomolgus monkey donor 12, anti-human IgG PE secondary
Method: as §2, §3, §4

[5] = biological target: T1, cynomolgus monkey BDCA2 (full-length, …); test: flow cytometry, whole blood pDCs of cynomolgus monkey donor 6, anti-human IgG PE secondary
Method: as §2, §3, §4

[6] = biological target: T1, cynomolgus monkey BDCA2 (full-length, …); test: flow cytometry, Alexa647-labelled BIIB059 on pDCs in cynomolgus monkey whole blood, on ice
Method: Cynomolgus monkey (Toxikon, Inc, Bedford, Mass.) or human peripheral blood (Biogen Idec) were collected in sodium heparin collection tubes and maintained at room temperature. A FACS staining antibody cocktail for identifying pDCs was added to each whole blood aliquot, incorporating CD20, CD14, CD123 and HLA-DR antibodies. […] Blood was incubated on ice, protected from light, for 30 min. […] After a 10-15 min. incubation at room temperature, samples were centrifuged at 1400 rpm for 5 min. The supernatant was decanted, leaving only a pellet of white blood cells (WBC). Each WBC pellet was washed with 5 mL of FACS buffer (1% BSA+0.002% NaAzide+1 mM CaCl₂+1 mM MgCl₂ in PBS), and centrifuged at 1400 rpm for 5 min. The supernatant was decanted, and each WBC pellet was resuspended in 200 μL of FACS buffer and transferred to a 96-well round bottom plate (Fisher Scientific). The plate was centrifuged at 1400 rpm for 5 min. The supernatant was dumped out of the plate, and each WBC pellet was washed with 200 μL of FACS buffer. The plate was centrifuged at 1400 rpm for 5 min, and the supernatant dumped out of the plate. Following washing (as above), WBCs were resuspended in 200 μL of 1% paraformaldehyde (PFA) in PBS, and fixed at 4° C. overnight, protected from light. […] Each WBC pellet was resuspended in 250 μL of FACS buffer and fluorescence intensity measured on a LSRII 4-color FACS machine. […]

[7] = biological target: T2, human C1q (human, UniProt P02745 23-245; P02746 28-253; P02747 29-245); test: C1q ELISA: antibody coated in a dilution series, human C1q at 2 µg/mL, read at 450 nm; column C (midpoint, the C value of paragraph 430) of the printed 4-parameter fit; the axis reads Concentration with no unit, the unit of the coated antibody is from the legend paragraph 61; A 0.061, B 2.527, D 2.212, R^2 1
T2 construct: also called complement component C1q
T2 sequence (P02745 23-245 limits assumed, chain 1 of 3): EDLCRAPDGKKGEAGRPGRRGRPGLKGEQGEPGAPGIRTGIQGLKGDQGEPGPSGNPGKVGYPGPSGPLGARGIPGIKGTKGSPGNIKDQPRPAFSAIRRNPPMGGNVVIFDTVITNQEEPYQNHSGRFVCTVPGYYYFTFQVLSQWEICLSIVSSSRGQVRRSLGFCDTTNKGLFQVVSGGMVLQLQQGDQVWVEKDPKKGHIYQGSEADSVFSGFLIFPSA
T2 sequence (P02746 28-253 limits assumed, chain 2 of 3): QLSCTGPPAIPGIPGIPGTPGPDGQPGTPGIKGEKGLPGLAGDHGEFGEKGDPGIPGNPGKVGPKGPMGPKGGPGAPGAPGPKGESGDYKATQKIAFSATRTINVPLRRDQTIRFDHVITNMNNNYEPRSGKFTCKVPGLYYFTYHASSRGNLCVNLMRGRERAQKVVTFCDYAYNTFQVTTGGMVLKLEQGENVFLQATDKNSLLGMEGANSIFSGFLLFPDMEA
T2 sequence (P02747 29-245 limits assumed, chain 3 of 3): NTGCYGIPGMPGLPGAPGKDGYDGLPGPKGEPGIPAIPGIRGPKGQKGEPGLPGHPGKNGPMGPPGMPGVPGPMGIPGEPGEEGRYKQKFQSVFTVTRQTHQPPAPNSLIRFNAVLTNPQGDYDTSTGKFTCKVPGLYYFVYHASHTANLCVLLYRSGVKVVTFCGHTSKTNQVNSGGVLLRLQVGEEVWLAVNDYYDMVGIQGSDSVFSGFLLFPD

[8] = biological target: T1, cynomolgus monkey BDCA2 (full-length, …); test: cell-based or functional assay
[9] = biological target: T1, cynomolgus monkey BDCA2 (full-length, …); test: flow cytometry, whole blood pDCs of cynomolgus monkey donor 5, anti-human IgG PE secondary
Method: as §3, §4

IC50 (read off the curve) [1]: ~2 mg/L
EC50 [2]: 0.95 mg/L
IC50 (read off the curve) [3]: ~1 mg/L
EC50 [4]: 1.6 mg/L
EC50 [5]: 1.3 mg/L
EC50 [6]: 0.944 mg/L
EC50 [7]: 2.5 mg/L
EC50 of BDCA2 internalization on pDCs (cynomolgus monkey 3, IV 10 mg/kg) [8]: 0.15 µg/mL
EC50 of BDCA2 internalization on pDCs (cynomolgus monkey 4, SC 0.2 mg/kg) [8]: 0.088 µg/mL
EC50 of BDCA2 internalization on pDCs (cynomolgus monkey 5, IV 1 mg/kg) [8]: 0.087 µg/mL
EC50 of BDCA2 internalization on pDCs (cynomolgus monkey 6, IV 1 mg/kg) [8]: 0.025 µg/mL
EC50 of BDCA2 internalization on pDCs (cynomolgus monkey 6, SC 0.2 mg/kg) [8]: 0.046 µg/mL
EC50 of BDCA2 internalization on pDCs (cynomolgus monkey 7, IV 1 mg/kg) [8]: 0.09 µg/mL
EC50 of BDCA2 internalization on pDCs (cynomolgus monkey 8, IV 10 mg/kg) [8]: 0.37 µg/mL
EC50 of BDCA2 internalization on pDCs (cynomolgus monkey 10, IV 10 mg/kg) [8]: 0.126 µg/mL
EC50 of BDCA2 internalization on pDCs (cynomolgus monkey 12, SC 0.2 mg/kg) [8]: 0.121 µg/mL
EC50 of BDCA2 internalization on pDCs (mean of the cynomolgus monkeys) [8]: 0.123 µg/mL
EC50 [9]: 0.71 mg/L
B1: BIIB059 (antibody, human IgG1, kappa)
heavy: not shown
light: DIQLTQSPSSLSASVGDRVTITCKASQSVDYDGDSYMNWYQQKPGKAPKLLIYAASTLESGVPSRFSGSGSGTDFTLTISSLQPEDFATYYCQQANEDPRTFGQGTKVEIKRTVAAPSVFIFPPSDEQLKSGTASVVCLLNNFYPREAKVQWKVDNALQSGNSQESVTEQDSKDSTYSLSSTLTLSKADYEKHKVYACEVTHQGLSSPVTKSFNRGEC
notes: Humanized IgG1 kappa, mature chains; in some assays labelled with Alexa647; also called hu24F4 H4/L1 C95A; H4-L1-C95A (YL751/YL746)
